Test results from patent publication US8124742.
Numbering of substitutions follows the chain as printed.

B1: SH20 (Fab, V domains shown)
VH: VQLLEESGGGVVQPGRSLRLSCAASGFTFRSYAMHWVRQAPGKGLEWVAVISYDGSTIYYADSVKGRFTISRANSKNTLFLQMNSLRTEDTAVYYCTRGGFYYDSSGYYGLRHYFDYWGQGTLVTVSS
VL: AELTQSPFSLSASVGDRVTITCRASQSISRSLNWYQHKPGEAPKLLIYAASSLQRGVPPRFSGSGSGTDFTLTISSLQPEDFATYFCQQSVRIPYSFGQGTKLEIKR
notes: Fab on M13 phage
B2: SH18 (Fab, V domains shown)
VH: EVQLLESGGGVVQPGRSLRLSCAASGFTFRSYAMHWVRQAPGKGLEWVAATAYDGKNKYYADSVKGRFTISRDNSMNTLFLQMNSLRAEDTAVFYCARGGFYYDSSGYYGLRHYFDSWGQGTLVTVSS
VL: AELTQSPSSLSASVGDRVTITCRASQSISIALNWYQQRPGKAPKLLMYATSTLQSGVPSRFSGSGSGTDFTLTISSLQPEDFATYYCQQYYNKPTFGPGTKVDIKR
notes: Fab on M13 phage
B3: SH10 (Fab, V domains shown)
VH: VQLLEESGGGVVQPGRSLRLSCAASGFTFSRNGMHWVRQAPGKGLEWVAFIWFDGSNKYYADSVKGRFTISRDNSKNTLYLQMNSLRADDTAVYYCAREEALFRGLTRWSYGMDVWGQGTTVSVSS
VL: AELQDPVVSVALGQTVRITCQGDGLRSYYASWYQQKPGQAPKLVMYGRNNRPSGIPGRFSGSSSGQTAALTITGTQAEDEADYYCQSRATSGNPVVFGGGTKLTVL
notes: Fab on M13 phage
B4: SH08 (Fab, V domains shown)
VH: EVQLLESGGGVVQPGRSLRLSCAVSGFTLTNYGMHWVRQAPGKGLEWVAHVWYDGSKTEYADSVKGRFAVSRDKSKNTLFLQMNSLTAEDTAIYYCARERREKVYILFYSWLDRWGQGTLVTVSS
VL: AELTQSPSSLAASVGDRVTITCRANQTIRTSLNWYQQRPGKAPNLLIYGASRLHSGVPSRFSGGISGADFTLTISSLQPEDFATYYCQQTYGYSRTFGQGTKVDIKR
notes: Fab on M13 phage; also called SH8
B5: SH30 (Fab, V domains shown)
VH: B4 VH
VL: AELTQSPSSLSASVGDRVTITCRASQSIRRSLNWYQQSPGKTPKLLIYAASSLQSGVPSRFSGSGSGTDFTLTISSLQPEDFATYYCQQSYSTLTFGGGTKVEIKR
notes: Fab on M13 phage
B6: SH14 (Fab, V domains shown)
VH: EVQLLESGGGVVQPGRSLRLSCAASGFTFSTYGMHWVRQAPGKGLEWVAVIWFDGSNKEYADSVKGRFTISRDNSKNTLYLQMNSLRAEDTAVYYCAREEVVRGVILWSRKFDYWGQGTLVTVSS
VL: AELTQSPSSLSASVGDRVTITCRASQNIRRSLNWYQHKPGRAPRLLIYAASTLQSGVPSRFRGSGSGTDFTLTINSLQPADFATYYCQQSSNTPWTFGHGTKVEIKR
notes: Fab on M13 phage
B7: SH39 (Fab, V domains shown)
VH: B6 VH with E1V, V2Q, Q3L, L5E, E6Q, T31S
VL: AELTQSPSSLSASVGDRVTITCRASQTIGRYLNWYQQRPGKAPKLLVYAVSSLQSGAPSRFSGSGSGTHFTLTITSLQPEDFATYFCQQSYSSPFTFGQGTKVEIKR
notes: Fab on M13 phage
B8: SH12 (Fab, V domains shown)
VH: B6 VH with I70V
VL: AELTQSPFSLSASVGDRVTITCRASHNIYRSLNWFQHKPGEAPKLLVYAASSLQRGVPTRFSGSGSGTDFTLTISSLQPEDSATYFCQQSVTFPYTFGQGTKLEIRR
notes: Fab on M13 phage
B9: SH25 (Fab, V domains shown)
VH: VQLLEESGGGVVQPGRSLRLACAASGFSFRSYGMHWVRQAPGRGLEWVAFTWFDGSNKYYVDSVKGRFTISRDNSKNTLYLEMNSLRVDDTAVYYCAREAPMLRGISRYYYAMDVWGPGTTVTVSS
VL: B6 VL with H37Q, R41K, R44K, T52S, R62S, N75S, A80E, H99Q
notes: Fab on M13 phage
B10: SH21 (Fab, V domains shown)
VH: B6 VH with I70V
VL: AELTQSPSFLSASVGDRVTITCRASQGIRSYLAWYQQKPGKAPKLLIYAASTLQSGVPSRFSGSGSGTEFTLTIASLQPDDFATYYCQQLNNYPPFTFGPGTKVDIKR
notes: Fab on M13 phage
B11: SH04 (Fab, V domains shown)
VH: B6 VH
VL: B6 VL with H37Q, R41K, R44K, T52S, R62S, N75S, A80E, H99Q
notes: Fab on M13 phage
B12: SH16 (Fab, V domains shown)
VH: EVQLLESGGGVVQPGRSLRLSCAASGFTFSSYGMHWVRQAPGRGLEWVALIWYDGGNKEYADSVKGRFSISRDNSKNTLYLQVNSLRADDTAVYYCARDQRAAAGIFYYSRMDVWGQGTTVTVSS
VL: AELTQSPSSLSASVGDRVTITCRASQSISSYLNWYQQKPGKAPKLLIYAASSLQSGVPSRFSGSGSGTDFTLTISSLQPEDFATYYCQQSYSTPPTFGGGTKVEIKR
notes: Fab on M13 phage
B13: SH26 (Fab, V domains shown)
VH: EVQLLESGGGVVQPGRSLRLSCVVSGFTFNNYGMHWVRQAPGKGLEWVAVIWFDGSNKYYADSVKGRFTISRDNSKNTLYLQMNSLRAEDTAVYYCARENQIKLWSRYLYYFDYWGQGTLVTVSS
VL: AELTQSPSSLSASVGDRVTITCRASQSISSYLNWYQQKPGKAPKLLIYAASSLQSGVPSRFSGSGSGTDFTLTISSLQPEDFATYYCQQSYSFRRYSFGQGTKLEIKR
notes: Fab on M13 phage
B14: SH34 (Fab, V domains shown)
VH: EVQLLESGGGVVQPGRSLRLSCAASGFSFSSYGMHWVRQAPGKGLEWVAVISYDGTNKYFADSVKGRFTISRDNSKKTLYLQMTSLRPEDTAVYFCANLRGEVTRRASVPLDIWGQGTMVTVSS
VL: B13 VL with S52G, F93T, R94P, R95P, S97T
notes: Fab on M13 phage
B15: SH32 (Fab, V domains shown)
VH: EVQLLESGGGVVQPGRSLRLSCEASKFTLYNYGMHWVRQAPGKGLEWVAFIWFDGSNKYYEDSVKGRFTVSRDNSKNTLYLQMNSLRAEDTAVYYCARELSKKVALSRYYYYMDVWGQGTTVTVSS
VL: AELTQEPSLTVSPGGTVTLTCASSTGAVTSRYFPNWFQQKPGQAPRALIYGSNNKHSWTPARFSGSLLGGKAALTLSGVQPEDEAEYYCLLFYAGAWAFGGGTKLTVL
notes: Fab on M13 phage
B16: SH36 (Fab, V domains shown)
VH: B15 VH with L100G
VL: AELTQSPSSLSASVGDRVTITCRASQSISSYLNWYQQKPGKSPKLLIYAASSLQSGVPSRFSGSGSGTDFTLTISSLQPEDFATYYCQQSYSTPPAFGPGTKVDIKR
notes: Fab on M13 phage
B17: SH37 (Fab, V domains shown)
VH: B15 VH
VL: AELQDPVVSVALGQTVKITCQGDSLRKYYASWYQQKPGQAPVLVFYARNSRPSGIPDRFSGSNSGTTASLTIAGARAEDEADYYCHSRDSNGHHRVFGGGTKLTVL
notes: Fab on M13 phage
B18: SH28 (Fab, V domains shown)
VH: EVQLLESGGGGVQPGRSLRLSCAASGFTFNSYAMYWVRQPPGKGLEWVAAIWYDGSNKEYADFVKGRFTISRDNSKNTLSLQMNSLRDEDTAVYYCAREANLLRGWSRYYYGMDVWGQGTTVTVSS
VL: AELTQSPSSLSASVGDRVTITCRADQNIRRSLNWFQQKPGKAPKLLIYAASSLQSGVPSRFSGSGSGTDFTLTISSLQPEDFATYYCQQSSSTPWTFGRGTKVEIKR
notes: Fab on M13 phage
B19: SH50 (Fab, V domains shown)
VH: B18 VH
VL: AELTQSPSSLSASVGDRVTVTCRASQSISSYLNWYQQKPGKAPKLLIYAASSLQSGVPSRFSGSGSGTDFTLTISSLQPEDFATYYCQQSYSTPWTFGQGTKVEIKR
notes: Fab on M13 phage
B20: SH24 (Fab, V domains shown)
VH: EVQLLESGGGVAQPGRSLRLSCVASGFSLRSYGMHWVRQAPGKGLEWVADIWFDGSNKDYADSVKGRFTISRDNSKNTLYLQMNSLRAEDTAVYYCARDWRVRAFSSGWLSAFDIWGQGTMVTVSS
VL: AELTQSPSSLSASVGDRVTITCRASQSISTYLNWYQQRPGKAPNLLIYAASTLQRGVPSRFTGSGSGTDFTLTISSLQPEDFATYYCQQSYTTLWTFGQGTKMEIRR
notes: Fab on M13 phage

molecular target: T1, human Rh(D) antigen on Rh(D)-positive red blood cells (human, UniProt Q02161 2-417); test: agglutination, anti-M13
T1 construct: whole, on cells; also called wt; wild type Rh(D)
T1 sequence (looked up): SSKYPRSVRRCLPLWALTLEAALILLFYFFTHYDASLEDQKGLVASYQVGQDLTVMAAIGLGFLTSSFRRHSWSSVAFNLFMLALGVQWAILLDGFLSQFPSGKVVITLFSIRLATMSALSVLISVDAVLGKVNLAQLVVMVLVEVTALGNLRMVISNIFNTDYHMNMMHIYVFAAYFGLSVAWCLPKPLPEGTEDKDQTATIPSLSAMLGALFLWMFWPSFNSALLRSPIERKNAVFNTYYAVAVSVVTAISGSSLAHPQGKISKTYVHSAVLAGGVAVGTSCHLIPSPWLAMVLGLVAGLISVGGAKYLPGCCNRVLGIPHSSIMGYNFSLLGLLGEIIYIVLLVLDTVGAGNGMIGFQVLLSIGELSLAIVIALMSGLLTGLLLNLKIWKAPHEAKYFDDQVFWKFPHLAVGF
Procedure: The binding of anti-Rh(D) Fab/phage or soluble Fab molecules to normal or partial Rh(D) antigens was assessed by indirect agglutination assays as described (Siegel et al., 1994, Blood 83:2334; Siegel et al., 1997, J. Immunol. Meth. 206: 73). […] Following a one-hour incubation at 37° C., the RBCs were washed 3 times with 2 ml of cold PBS to remove unbound antibody. The resulting RBC pellets were resuspended in 100 μl of a 10 μg/ml solution of sheep anti-M13 antibody (5 Prime-3 Prime, Boulder, Colo.) for Fab/phage experiments or goat anti-human κ or λ light chain antibody (Tago, Burlingame, Calif.) for $\gamma_1\kappa$ or $\gamma_1\lambda$ soluble Fab experiments, respectively. The RBC suspensions were transferred to the round-bottomed wells of a 96-well microplate and left undisturbed for 2 hours. Negative reactions show sharp ~2 millimeter diameter RBC spots whereas the RBCs in agglutinated wells form a thin carpet coating the entire floor of the well (Siegel et al., 1997, J. Immunol. Meth. 206:73). Agglutination titers for recombinant antibodies were determined by performing serial 2-fold dilutions in 1% BSA/PBS.
Fifty-six randomly chosen colonies were selected, and monoclonal Fab/phage preparations were separately produced from each of these individual colonies, using the methods described herein in Example 1. Rh(D) specificity was determined by indirect agglutination using anti-M13 antibody, as described herein in Examples 1 and 2.

| Binder | binding result |
| --- | --- |
| B1 | binds |
| B2 | binds |
| B3 | binds |
| B4 | binds |
| B5 | binds |
| B6 | binds |
| B7 | binds |
| B8 | binds |
| B9 | binds |
| B10 | binds |
| B11 | binds |
| B12 | binds |
| B13 | binds |
| B14 | binds |
| B15 | binds |
| B16 | binds |
| B17 | binds |
| B18 | binds |
| B19 | binds |
| B20 | binds |
